Measured values published in paper PMC8053128, “Structures of Neisseria gonorrhoeae MtrR-operator complexes reveal molecular mechanisms of DNA recognition and antibiotic resistance-conferring clinical mutations”.

Tests used:
MtrR WT [1] = target: T1, MtrR WT (Neisseria gonorrhoeae, UniProt P39897 1-210); experiment: fluorescence polarization; FP: 20 mM Tris-HCl pH 7.5, 100 mM NaCl, 2.5% glycerol, 1 mM TCEP, 1 ug BSA, 1 ug poly(dI-dC), 1 nM 5'-fluorescein DNA; temperature not stated; MtrR concentration as dimer; settings: protein: recombinant; tags: N-terminal His6 removed by TEV (pMCSG7); chain copies: 2; label: 5'-fluorescein
MtrR G45D = MtrR G45D (Neisseria gonorrhoeae, UniProt P39897 1-210, G45D); experiment: as above; settings: protein: recombinant; tags: N-terminal His6 removed by TEV (pMCSG7); chain copies: 2; label: 5'-fluorescein
MtrR T43A = MtrR T43A (Neisseria gonorrhoeae, UniProt P39897 1-210, T43A); experiment: as above; settings: protein: recombinant; tags: N-terminal His6 removed by TEV (pMCSG7); chain copies: 2; label: 5'-fluorescein
MtrR G45A = MtrR G45A (Neisseria gonorrhoeae, UniProt P39897 1-210, G45A); experiment: as above; settings: protein: recombinant; tags: N-terminal His6 removed by TEV (pMCSG7); chain copies: 2; label: 5'-fluorescein
MtrR A39T = MtrR A39T (Neisseria gonorrhoeae, UniProt P39897 1-210, A39T); experiment: as above; settings: protein: recombinant; tags: N-terminal His6 removed by TEV (pMCSG7); chain copies: 2; label: 5'-fluorescein
MtrR R44A = MtrR R44A (Neisseria gonorrhoeae, UniProt P39897 1-210, R44A); experiment: as above; settings: protein: recombinant; tags: N-terminal His6 removed by TEV (pMCSG7); chain copies: 2; label: 5'-fluorescein
MtrR WT [2] = target: T1, MtrR WT; experiment: fluorescence polarization; nonspecific binding only; FP: 20 mM Tris-HCl pH 7.5, 100 mM NaCl, 2.5% glycerol, 1 mM TCEP, 1 ug BSA, 1 ug poly(dI-dC), 1 nM 5'-fluorescein DNA; temperature not stated; MtrR concentration as dimer; settings: protein: recombinant; tags: N-terminal His6 removed by TEV (pMCSG7); chain copies: 2; label: 5'-fluorescein
Semet-MtrR WT = Semet-MtrR WT (Neisseria gonorrhoeae, UniProt P39897 1-210); experiment: X-ray crystallography; 2.6 A; 200 mM calcium acetate; FP: 20 mM Tris-HCl pH 7.5, 100 mM NaCl, 2.5% glycerol, 1 mM TCEP, 1 ug BSA, 1 ug poly(dI-dC), 1 nM 5'-fluorescein DNA; temperature not stated; MtrR concentration as dimer; settings: protein: recombinant; tags: N-terminal His6 removed by TEV (pMCSG7); chain copies: 2
MtrR D79N = MtrR D79N (Neisseria gonorrhoeae, UniProt P39897 1-210, D79N); experiment: fluorescence polarization; FP: 20 mM Tris-HCl pH 7.5, 100 mM NaCl, 2.5% glycerol, 1 mM TCEP, 1 ug BSA, 1 ug poly(dI-dC), 1 nM 5'-fluorescein DNA; temperature not stated; MtrR concentration as dimer; settings: protein: recombinant; tags: N-terminal His6 removed by TEV (pMCSG7); chain copies: 2; label: 5'-fluorescein
MtrR W49F = MtrR W49F (Neisseria gonorrhoeae, UniProt P39897 1-210, W49F); experiment: as above; settings: protein: recombinant; tags: N-terminal His6 removed by TEV (pMCSG7); chain copies: 2; label: 5'-fluorescein
MtrR H50A = MtrR H50A (Neisseria gonorrhoeae, UniProt P39897 1-210, H50A); experiment: as above; settings: protein: recombinant; tags: N-terminal His6 removed by TEV (pMCSG7); chain copies: 2; label: 5'-fluorescein
MtrR T11A = MtrR T11A (Neisseria gonorrhoeae, UniProt P39897 1-210, T11A); experiment: as above; settings: protein: recombinant; tags: N-terminal His6 removed by TEV (pMCSG7); chain copies: 2; label: 5'-fluorescein
MtrR H105Y = MtrR H105Y (Neisseria gonorrhoeae, UniProt P39897 1-210, H105Y); experiment: as above; settings: protein: recombinant; tags: N-terminal His6 removed by TEV (pMCSG7); chain copies: 2; label: 5'-fluorescein
MtrR T43S = MtrR T43S (Neisseria gonorrhoeae, UniProt P39897 1-210, T43S); experiment: as above; settings: protein: recombinant; tags: N-terminal His6 removed by TEV (pMCSG7); chain copies: 2; label: 5'-fluorescein

B1: ApY 27mer (dsDNA)
DNA 1: TACAATCGTGGTTGATTGTAAACGGCC
DNA 2: GGCCGTTTACAATCAACCACGATTGTA
Work on B1 yielded a Kd (MtrR WT [1]) of 293 ± 24 nM.

B2: mtrCDE 27mer (dsDNA)
DNA 1: TTTTTATCCGTGCAATCGTGTATGTAT
DNA 2: ATACATACACGATTGCACGGATAAAAA
Binder B2 has a Kd (MtrR WT [1]) of 43 ± 4 nM.

B3: emrAB 22mer (dsDNA)
DNA 1: AGTCGGCTATATCATTGCTGTC
DNA 2: GACAGCAATGATATAGCCGACT
B3: no binding (MtrR G45D); no binding (MtrR T43A); no binding (MtrR G45A). B3: no binding (MtrR A39T); no binding (MtrR R44A); no binding (MtrR WT [2]).

B4: rpoH 21mer (crystal) (dsDNA)
DNA 1: TACATACGTGGTTGTATGTAA
DNA 2: TTACATACAACCACGTATGTA
B4: binds (Semet-MtrR WT).

B5: mtrCDE 21mer (dsDNA)
DNA 1: TATCCGTGCAATCGTGTATGT
DNA 2: ACATACACGATTGCACGGATA
B5 was tested, and the binding result (MtrR G45D) was “no binding”, the Kd (MtrR WT [1]) was 50 ± 4 nM and the binding result (MtrR T43A) was “no binding”. For the same binder, the binding result (MtrR D79N) was “no binding”, the Kd (MtrR W49F) was 380 ± 44 nM and the Kd (MtrR H50A) was 990 ± 100 nM. For the same binder, the Kd (MtrR T11A) was 1080 ± 93 nM, the Kd (MtrR H105Y) was 640 ± 130 nM and the Kd (MtrR A39T) was 170 ± 11 nM. B5: no binding (MtrR R44A).

B6: rpoH 27mer (dsDNA)
DNA 1: TACATACGTGGTTGTATGTAAACGGCC
DNA 2: GGCCGTTTACATACAACCACGTATGTA
For B6, the binding result (MtrR G45D) was “no binding”, the Kd (MtrR WT [1]) was 8 ± 1 nM and the binding result (MtrR T43A) was “no binding”. The Kd (MtrR W49F) was 53 ± 3 nM, the Kd (MtrR H50A) was 376 ± 35 nM and the Kd (MtrR T43S) was 860 ± 180 nM. For the same binder, the Kd (MtrR T11A) was 441 ± 37 nM, the Kd (MtrR H105Y) was 340 ± 57 nM and the Kd (MtrR A39T) was 31 ± 3 nM. B6: no binding (MtrR R44A).

B7: GpY 27mer (dsDNA)
DNA 1: TACATAGCTGGTGTTATGTAAACGGCC
DNA 2: GGCCGTTTACATAACACCAGCTATGTA
B7: no binding (MtrR G45D); no binding (MtrR T43A); no binding (MtrR G45A). For the same binder, the Kd (MtrR H105Y) was 860 ± 80 nM, the binding result (MtrR A39T) was “no binding” and the binding result (MtrR R44A) was “no binding”. B7: no binding (MtrR WT [2]).
